Where a chain is given by its changes, count along the chain named.
Target: T1, FcγRIIA protein (UniProt P12318 36-218)
T1 construct: also called CD32a
T1 sequence: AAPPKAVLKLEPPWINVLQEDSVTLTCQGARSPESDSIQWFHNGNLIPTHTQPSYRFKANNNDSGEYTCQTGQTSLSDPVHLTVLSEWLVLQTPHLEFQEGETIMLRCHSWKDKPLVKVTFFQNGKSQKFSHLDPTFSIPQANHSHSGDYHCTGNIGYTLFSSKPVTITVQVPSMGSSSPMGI
Assay: BLI, multi-concentration (5000 to 312.5 nM of the Fc variant)

B1: Seq2-Sf9 (murine IgG1 Fc variant with three mutations, alanine at positions 223, 228 and 230, expressed in Sf9 insect cells) (other)
chain: VDKKIVPADCGCAPCICAVPEVSSVFIFPPKPKDVLTITLTPKVTCVVVDISKDDPEVQFSWFVDDVEVHTAQTQPREEQFNSTFRSVSELPIMHQDWLNGKEFKCRVNSAAFPAPIEKTISKTKGRPKAPQVYTIPPPKEQMAKDKVSLTCMITDFFPEDITVEWQWNGQPAENYKNTQPIMDTDGSYFVYSKLNVQKSNWEAGNTFTCSVLHEGLHNHHTEKSLSHSPGL
notes: Fc fragment alone, expressed from the pFastBacHTa-gp64 vector in Sf9 cells and purified by Protein A; about 26 kDa on SDS-PAGE; also called mouse Fc with three mutations
Kd: 789 nM

B2: Seq3-Sf9 (murine IgG1 Fc variant with five mutations, alanine at 223, 228 and 230, leucine at 330, glutamic acid at 332, expressed in Sf9 insect cells) (other)
chain: B1 chain with A115L, I117E
notes: Fc fragment alone, expressed from the pFastBacHTa-gp64 vector in Sf9 cells and purified by Protein A; about 26 kDa on SDS-PAGE; also called mouse Fc with five mutations
Kd: 450 nM

Source: patent US20250144202A1 (KAIMI BIOMEDICINE CHENGDU, published 2025)
